Non-standard residues stand in square brackets, D forms with d. No end group written: not given here. NMeF = CN[C@@H](Cc1ccccc1)C(=O)O

One experiment addresses T1, GPR10 (human, UniProt P49683 1-370).
T1 sequence (looked up): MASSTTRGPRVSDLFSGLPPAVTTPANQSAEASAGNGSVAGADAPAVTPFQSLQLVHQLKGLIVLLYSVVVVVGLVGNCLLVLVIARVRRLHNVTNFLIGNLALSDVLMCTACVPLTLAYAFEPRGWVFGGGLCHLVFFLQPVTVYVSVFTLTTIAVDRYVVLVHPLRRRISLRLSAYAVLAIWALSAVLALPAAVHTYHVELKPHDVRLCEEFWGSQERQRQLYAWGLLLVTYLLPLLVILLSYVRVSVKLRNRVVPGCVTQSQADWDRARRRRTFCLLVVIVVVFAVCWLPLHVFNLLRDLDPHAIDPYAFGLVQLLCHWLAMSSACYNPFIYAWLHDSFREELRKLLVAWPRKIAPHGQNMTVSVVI

The next experiment deals with kappa-opioid receptor (UniProt P41145 1-380). Nature of the experiment: radioligand binding; competition with [^125I]-dynorphin A on plasma membranes of CHO-K1 cells with KOR, 5 µg protein/tube; 50 mM Tris-HCl pH 7.4, 60 mM NaCl, 1 mM MgCl2, 0.5% BSA; 60 min at RT; filtration; Ki by the Cheng-Prusoff equation.
A further experiment addresses T2, NPFF-R2 (UniProt Q9Y5X5 1-522).
T2 construct: also called NPFF-2R; source: CHO-K1 cell line (AequoScreen), bought: Perkin Elmer
Nature of the experiment: radioligand binding; competition with [^125I]-1DMe on plasma membranes of CHO-K1 cells with NPFF-R2 or NPFF-R1, 5 µg protein/tube; 50 mM Tris-HCl pH 7.4, 60 mM NaCl, 1 mM MgCl2, 0.5% BSA; 60 min at RT; filtration; Ki by the Cheng-Prusoff equation. Conditions: one partner purified.

For another experiment, the target named is T3, NPFF-R1 (UniProt Q9GZQ6 1-430).
T3 construct: also called NPFF-1R; source: CHO-K1 cell line, bought: Perkin Elmer
Described as above. Conditions: one partner purified.

human prolactin-releasing peptide 31 gave an EC50, agonist mode, β-lactamase reporter assay with GPR10 of 0.53 nM. For [D-Pro10]-dynorphin A (peptide), the Ki (commonly a dissociation constant, usually derived from enzyme kinetics or from competition with a known ligand) in the experiment with kappa-opioid receptor was 0.36 nM.

B1: 1DMe (peptide)
peptide: [dY]L[NMeF]QPQRF-NH2
modifications: N-terminus assumed
SMILES: CC(C)C[C@H](NC(=O)[C@H](N)Cc1ccc(O)cc1)C(=O)N(C)[C@@H](Cc1ccccc1)C(=O)N[C@@H](CCC(N)=O)C(=O)N1CCC[C@H]1C(=O)N[C@@H](CCC(N)=O)C(=O)N[C@@H](CCCNC(=N)N)C(=O)N[C@@H](Cc1ccccc1)C(N)=O
notes: numbers count on: the peptide NPFF; source: synthetic peptide, purified (HPLC, purity greater than 95%)
In the case of B1, the Ki was 1.03 nM in the experiment with NPFF-R2 and 0.79 nM with NPFF-R1.

For the origin of these results see article PMC8396344, “Palmitoylation of Prolactin-Releasing Peptide Increased Affinity for and Activation of the GPR10, NPFF-R2 and NPFF-R1 Receptors: In Vitro Study” (International Journal of Molecular Sciences, 2021).
